Data reported in the RNAGym collection of RNA variant scans (doi:10.1073/pnas.2313332121).

B1: TPR t1 (parent)
chain: GACCAAUCUGCCCUCAGAGCUCGAGAACAUCUUCGGAUGCAGAGGAGGCAGGCUUCGGUGGCGCGAUAGCGCCAACGUCCUCAACCUCCAAUGCAUCCCACCACAUGAUGAUGCCUGAAGAGCCUUGGUUUUUUG

Variants of: B1
Assay: polymerase ribozyme fitness, log enrichment relative to wild type (log ratio); higher = more active; in vitro selection for triplet polymerase activity
Method in brief: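 Mutant libraries were PCR-built and transcribed for each subunit of a heterodimeric triplet polymerase ribozyme and selected for one round in triplicate at −7 °C, frozen, before gel excision of extended constructs and streptavidin-bead capture. Input and output libraries were Illumina-sequenced, keeping genotypes with ≥10 input reads and ≥1 read per output. Fitness is a logarithmic ratio of genotype to wild-type enrichment, in base 2, using inverse-variance-weighted replicate averages.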

Variant	polymerase ribozyme fitness (log ratio)
GACCAAUCUGCCCUCAGAGCUCGAGAACAUCUGCGGAUGCAGAGGAGGCAGGCUUCGGUGGCGCGAUAAAGCCAACGUCCUCAACCUCCAAUGCAUCCCACCACAUGAUGUUGCCUGAAGAGCCUUGGUUUUUUG	-7.15
GACCAAUCUGCCCUCAGAGCUCGAGAACAUCUGCGGAUGCAGAGGAGGCAGGCUUCGGUGGCGCGAUACCGCCAACGUCGUCAACCUCCACAGCAUCCCAUCACAUGAUGAUGCGUGAAGAGCCUUGGUUUUUUG	-7.68
GACCAAUCUGCCCUCAGAGCUCGAGAACAUCUGCGGAUGCAGAGGAGGCAGGCUUCGGUGGCGCGAUAUCGCCAACGUCCUCAACCUCCAAUGCAUCCCACCACAUGAUGAUGCCUGAAGAGCCUUGGUUUUUUG	-2.25
GACCAAUCUGCCCUCAGAGCUCGAGAACAUCUGCGGAUGCAGAGGAGGCAGGCUACGGUGGCGCGAUAGCGCCAACGUCCUCAACCUCCAAUGCAUCCCACCACAUGAUGAUGCCUGAAGAGCCUUGGUUUUUUG	-4.84
GACCAAUCUGCCCUCAGAGCUCGAGAACAUCUGCGGAUGCAGAGGAGGCAGGCUUCGGUGGCGCGAUAGCGCCAACGUCCUCAACCUCCAAUGCAUCCCACCACAUGAUGAUGCCUGAAGAGCCUUGGUAUUUUG	-5.01
GACCAAUCUGCCCUCAGAGCUCGAGAACAUCUUAGGAUGCAGAGGAGGCAGGCUUCGGUGGCGCGAUAGCGCCCACGUCCUCAACCUCGAAUGCAUCCCACCACAUGAUGAUCCCUGCAGAGCCUUGGUUAUUUG	-5.57
GACCAAUCUGCCCUCAGAGCUCGAGAACAUCUUAGGAUGCAGAGGAGGCAGGCUUCGGUGGCGCGAUAGCGCCAACGUCCUCAUCCUCCAAUGCAUCCCACCACAUGAUGAUGCCUGAAGAGCCUUGGUUUUUUG	-2.81
GACCAAUCUGCCCUCAGAGCUCGAGAACAUCUUAGGAUGUAGAGGAGGAAGGCUUCGGUGGUGCGAUAGCGCCAACGUCCUCAACCUCCAAUGCAGCCCACCACAUGAUGAUGCCUGAAGAGCCUUGGUUUUUUG	-5.57
GACCAAUCUGCCCUCAGAGCUCGAGAACAUCUUAGGAUGCAGAGGAGGCAGGAUUCGGUGGCGCGAUAGCGCCAACGUCCUCAACCUCCAAUGCAUCCCACCACAUGAUGAUGCCUGAAGAGCCUUGGUUUUUUG	-2.86
GACCAAUCUGCCCUCAGAGCUCGAGAACAUCUUAGGAUGCAGAGGAGGCAGGAUUAGGUGGCGCGAUAGCGCCAACGUCCUCAACCUCCAAUGCAUCCCACCACAUGAUGAUGCCUGAAGAGCCUUGGUUUUUUG	-2.66
GACCAAUCUGCCCUCAGAGCUCGAGAACAUCUUAGGAUGCAGAGGAGGCAGGGUUAGGUGGCGCGAUAGCGCCAACGUCCUCAACCUCCAAUGCAUCCCACCACAUGAUGAUGCCUGAAGAGCCUUGGUUUUUUG	-2.83
GACCAAUCUGCCCUCAGAGCUCGAGAACAUCUUAGGAUGCAGAGGAGGCAGGCUUCGGUGGAGCGAUAGCGCCAACGUCCUCAACCUCCAAUGCAUCCCACCACAUGAUGAUGCCUGAAGAGCCUUGGUUUUUUG	-4.45
GACCAAUCUGCCCUCAGAGCUCGAGAACAUCUUAGGAUGCAGAGGAGGCAGGCUUCGGUGGUGCGAUAGCGCCAACGUCCUCAAGCUCCAAUGCAUCCCACCACAUGAUGAUGCCUGAAGAGCCUUGGUCUUUUG	-2.75
GACCAAUCUGCCCUCAGAGCUCGAGAACAUCUUAGGAUGCAGAGGAGGCAGGCUUCGGUGGCGCGAUAGCGUCAACGUCCUCAACCUCCAAUGCAUCCCACCACAUGAUGAUGCCUGAAGAGCCUUGGUUUUUUG	-2.58
GACCAAUCUGCCCUCAGAGCUCGAGAACAUCUUAGGAUGCAGAGGAGGCAGGCUUCGGUGGCGCGAUAGCGUCAACGUCCUCAAACUCCAAUGCAUCCCACCACAUGAUGAUACCUGAAGAGCCUUGGUUUUUUG	-5.11
GACCAAUCUGCCCUCAGAGCUCGAGAACAUCUUAGGAUGCAGAGGAGGCAGGCUUCGGUGGCGCGAUAGCGCGAACGUCCUCAACCUCCAAUGCAUCCCACCACAUGAUGAUGCCUGAAAAGCGUUGGUUUUAUG	-1.12
GACCAAUCUGCCCUCAGAGCUCGAGAACAUCUUAGGAUGCAGAGGAGGCAGGCUUCGGUGGCGCGAUAGCGCCAAAGUCCUCAACCUCCAAUGCAUCCCACCACAUGAUGAUGCCUGAAGAGCCUUGGUUUUUUG	-4.09
GACCAAUCUGCCCUCAGAGCUCGAGAACAUCUUAGGAUGCAGAGGAGGCAGGCUUCGGUGGCGCGAUAGCGCCAACGUCUUCAACCUCCAAUGCAUCCCACCACAUGAUGAUGCCUGAAGAGCCUUUGUUUUUUG	-4.5
GACCAAUCUGCCCUCAGAGCUCGAGAACAUCUUAGGAUGCAGAGGAGGCAGGCUUCGGUGGCGCGAUAGCGCCAACGUCCUAAACCUCCAAUGCAUCCCACCACAUGAUGAAGCCUGAAGAGCCUUGGUUUUUUG	-2.63
GACCAAUCUGCCCUCAGAGCUCGAGAACAUCUUAGGAUGCAGAGGAGGCAGGCUUCGGUGGCGCGAUAGCGCCAACGUCCUUAACCUCCAAUGCAUGCCACCACAUGAUGAUGCCUGAAGAGCCUUGGUUUUUUG	-3.48
GACCAAUCUGCCCUCAGAGCUCGAGAACAUCUUAGGAUGCAGAGGAGGCAGGCUUCGGUGGCGCGAUAGCGCCAACGUCCUCAAACUCCAAUGCAUCCCACCACAUGAUGAUACCUGAAGAGCCUUGGUUUUUUG	-4.78

Variant	polymerase ribozyme fitness (log ratio)
GACCAAUCUGCCCUCAGAGCUCGAGAACAUCUUAGGAUGCAGAGGAGGCAGGCUUCGGUGGCGCGAUAGCGCCAACGUCCUCAACCUACAAUGCAUCCCACCACACGAUGAUGACUGAAGAGCCUUGGUUUUUUG	-6.05
GACCAAUCUGCCCUCAGAGCUCGAGAACAUCUUAGGAUGCAGAGGAGGCAGGCUUCGGUGGCGCGAUAGCGCCAACGUCCUCAACCUCUAAUGCAUCCCACCACAUGAUGAUGCCUUAAGAGCCUUGGUUUUUUG	-5.32
GACCAAUCUGCCCUCAGAGCUCGAGAACAUCUUAGGAUGCAGAGGAGGCAGGCUUCGGUGGCGCGAUAGCGCCAACGUCCUCAACCUCCAAUGCAUACCACCACAUGAUGAUGCGUGAAGAGCCUUGGUUUUUUG	-4.43
GACCAAUCUGCCCUCAGAGCUCGAGAACAUCUUAGGAUGCAGAGGAGGCAGGCUUCGGUGGCGCGAUAGCGCCAACGUCCUCAACCUCCAAUGCAUCCCAGCACAUGAUGAUGCCUGAAGAGCCUUGGAUUUUUG	-4.66
GACCAAUCUGCCCUCAGAGCUCGAGAACAUCUUAGGAUGCAGAGGAGGCAGGCUUCGGUGGCGCGAUAGCGCCAACGUCCUCAACCUCCAAUGCAUCCCACCAUAUGAUGAUGCCUGAAGAGCCUUGGUUUUUUG	-2.35
GACCAAUCUGCCCUCAGAGCUCGAGAACAUCUUAGGAUGCAGAGGAGGCAGGCUUCGGUGGCGCGAUAGCGCCAACGUCCUCAACCUCCAAUGCAUCCCACCACAUGAUGAUGCCUGAAGAGACUUGGUUUUUUG	-2.18
GACCAAUCUGCCCUCAGAGCUCGAGAACAUCUUAGUAUGCAGAGGAGGCAGGCUUCGGUGGCGCGAUAGCGCCAACGUCCUCAACCUCCAAUGCAUCCCACCACAUGAUGAUGCCUGAAGAGCCUUGGUUUUUUG	-4.2
GACCAAUCUGCCCUCAGAGCUCGAGAACAUCUUAGGAUGCAGACGAGGCAGGCUUCGGUGGCGCGAUAUCGCCAACGUCCUCAACCUACACUGCAUCCCACCACAUGAUAAUGCCUGAAGAGCCUUGGUUUUUUG	-4.87
GACCAAUCUGCCCUCAGAGCUCGAGAACAUCUUAGGAUGCAGAGGAGACAGGCUUCGGCGGCGCGAUAGCGCCAACGUCCUCAACCUCCAAUGCAUCCCAACACAUGAUGAUGCCUGAAGAGCCUUGGUUUUUUG	-5.32
GACCAAUCUGCCCUCAGAGCUCGAGAACAUCUUAGGAUGCAGAGGAGCCAGGCUUCGGUGGCGCGAUAGCGCCAACAUCCUCAACCUCCAAUGCAUCCCACCACAUGAUGAUGCCUGAAGAGCCUUGGUUUUUUG	-2.78
GACCAAUCUGCCCUCAGAGCUCGAGAACAUCUUAGGAUGCAGAGGAGUCAGGCUUCGGUGGCGCGAUAGCGCCAACGUCCUCAACCUCCAAUGCAUCCCACCACAUGAUGAUGCCUGAAGUGCCUUGGUUUUUUG	-1.3
GACCAAUCUGCCCUCAGAGCUCGAGAACAUCUUAGGAUGCAGAGGAGUCAGGCUUCGGUGCCGCGAUAGCGGCAACGUCCUCAACCUCCAAUGGAUCCCACCACAUGAUGAUGCCUGAGGAGCCUUGGUUUUCUG	-3.16
GACCAAUCUGCCCUCAGAGCUCGAGAACAUCUUAGGAUGCAGAGGAGGCAGGCUUCGGUAGCGCGAUAGCGCCAACGUCCUCAACCUCCAAUGCAUCCCACCGCAUGAUGAUGCCUGAAGAGCUUUGGUUUUUUA	-5.23
GACCAAUCUGCCCUCAGAGCUCGAGAACAUCUUAGGAUGCAGAGGAGGCAGGCUUCGGUAGCGCGAUAGCGGCAACGUCCUCAACCUUCAAUGCAUCCCACCACAUGAUGAUGCCUGAAGAGCCUUGGUUUUUUG	-6.11
GACCAAUCUGCCCUCAGAGCUCGAGAACAUCUUAGGAUGCAGAGGAGGCAGGCUUCGGUAGCGCGAUAGCGCCAACGUCCUCAACCUCCAAUGCAUCCCACCACAUGAUGAUGCUUGAAGAGCCUUGGUUUUUUG	-5.48
GACCAAUCUGCCCUCAGAGCUCGAGAACAUCUUAGGAUGCAGAGGAGGCAGGCUUCGGUGACGCGAUAGCGCCAACGUCCUCAACCUCCAAUGCAUCCCACCACAUGAUGAAGCUUGAAGAGCCUUGGUUUUUUG	-6.79
GACCAAUCUGCCCUCAGAGCUCGAGAACAUCUUAGGAUGCAGAGGAGGCAGGCUUCGGUGCCGCGAUAGCGCCAACGUCCUCAACCUCCACUGCAUCCCACCACAUGAUGAUGCCUGAAGUGCCUUGGUUUUUCG	-5.66
GACCAAUCUGCCCUCAGAGCUCGAGAACAUCUUAGGAUGCAGAGGAGGCAGGCUUCGGUGGCGCGAUACCGCCAACGUCCUCAACCUCCAAUGCAUCCCACCACAUGAUGAUGCCUGAAGAGCCUUGGUUUUUUG	-4.71
GACCAAUCUGCCCUCAGAGCUCGAGAACAUCUUAGGAUGCAGAGGAGGCAGGCUUCGGUGGCGCGAUAUCGCCAACGUCCUCAACCUCCAAUGCAUCCCACCACAUGAUGAUGCCUGAAGAGCCUUGGUUUUUUG	-0.154
GACCAAUCUGCCCUCAGAGCUCGAGAACAUCUUAGGAUGCAGAGGAGGCAGGCUUCGGUGGCGCGAUAGCGCCAACGUCCUCAACCUCCAAUGCAUCCCACCACAUGAUGAUCCCUCAAGAGCCUUGGUUUUUUG	-6.74
GACCAAUCUGCCCUCAGAGCUCGAGAACAUCUUAGGAUGCAGAGGAGGCAGGCUUCGGUGGCGCGAUAGCGCCAACGUCCUCAACCUCCAAUGCAUCCCACCACAUGAUGAUGCCUGAAGAGCCUUGGUUUUUUU	-3.05
